Assay: yeast display, Sf9 membrane polyspecificity reagent, FACS + sequencing; frameworks hold sequencing errors
Procedure, shortened: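 Sorting gates, low and high (top ~1%), were placed on anti-HA fluorescence to track expression and on streptavidin fluorescence to track reagent binding. A clone's polyreactivity label is taken from the gate it came out of. The reagent was 10% biotinylated, detergent-solubilized Sf9 membrane, applied for 1 hour at 4 °C to galactose-induced yeast display cells.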

Sequence | polyreactivity (PSR sort gate)
QVQLVESGGGLVQAGGSLRLSCAASGTFYRNAMGWYRQAPGKERELVAAISSGSNTDYADSVKGRFTISRDNAKNTVYLQMNSLKPEDTAVYYCNADRGDLYELRGSGYLDGYWGQGTQVTVSS | low polyreactivity
QVQLVESGGGLVQAGGSLRLSCAASGTFYRYAMGWYRQAPGKERELVAAIDKTGDTTYYADSVKGRFTISRDNAKNTVYLQMNSLKPEDTAVYYCAATGYPRFGYWGQGTQVTVSS | high polyreactivity
QVQLVESGGGLVQAGGSLRLSCAASGTFYTYAMGWYRQAPGKERELVAAINGGGRTYYADSVKGRFTISRDNAKNTVYLQMNSLKPEDTAVYYCAARPRWSPSKYDYWGQGTQVTVSS | high polyreactivity
QVQLVESGGGLVQAGGSLRLSCAASGTFYYYAMGWYRQAPGKERELVAAISNGDSTTYADSVKGRFTISRDNAKNTVYFQMNSLKPEDTAVYYCAAYRYTPRTSRGYYYWGQGTQVTVSS | low polyreactivity
QVQLVESGGGLVQAGGSLRLSCAASGTIFAKYAMGWYRQAPGKERELVAAISRSSVRTRYADSVKGRFTISRDYAKNTVYLQMNSLKPEDTAVYYCNAYYRSYAYSHLDYWGQGTQVTVSS | high polyreactivity
QVQLVESGGGLVQAGGSLRLSCAASGTIFLYYAMGWYRQAPGKERELVAGINRVGSTNYADSVKGRFTISRDNAKNTVYLQMNSLKPEDTAVFYCNKAATRSRSRGYWGQGTQVNVSS | low polyreactivity
QVQLVESGGGLVQAGGSLRLSCAASGTIFQENAMGWYRQAPGKERELVAAITGSGDSTYYADSVKGRFTISRDNAKNTVYLQMNSLKPEDTAVYYCAASWHTPTVYDEYYYWGQGTQVTVSS | low polyreactivity
QVQLVESGGGLVQAGGSLRLSCAASGTIFRWYAMGWYRQARGKEREFVAAITSSGGSTYYADSVKGRFTISRDNAKNTVYLQMNSLKPEDTAVYYCAARGWTANYEMDHWGQGTQVTVSS | high polyreactivity
QVQLVESGGGLVQAGGSLRLSCAASGTIFVAYDMGWYRQAPGKERELVAAINFDGTSTYYADSVKGRFTISRDNAKNTVYLQMNSLKPEDTAVYYCNKRVSPTYKGQYDYWGQGTQVTVSS | low polyreactivity
QVQLVESGGGLVQAGGSLRLSCAASGTLSSYAMGWYRQAPGKERELVAAISLSGGSTYADSVKGRFTISRDNAKKSVYLQMNSLKPEDTAVYYCAKDWDVEITWSFSIYNYWGQGTHVTVSS | low polyreactivity
QVQLVESGGGLVQAGGSLRLSCAASGTNVKGWYRQAPGKERELVAAISGSGGSTYYADSVKGRFTISRDNAKNTVYLQMNSLKPEDTAVYYCAADSIQYTARPYDYWGQVTQVTVSS | low polyreactivity
QVQLVESGGGLVQAGGSLRLSCAASGTSGYYAMGWNRQAPGKERELVAGISIGGSTNYADSVKGRFTISRDNAKNTVYLQMNSLKTEDTAVYYCAVDGYVAFSPDRNNYWGQVTQVTVSS | low polyreactivity
QVQLVESGGGLVQAGGSLRLSCAASGTTFPLYAMGWYRQAPGKERELVAAITSVGSTYYADSVKGRFTISRDNAKNTVYLQMNSLKPEDTAVYDCAAANYTYASRWYDYWGQGTQVTVSS | low polyreactivity
QVQLVESGGGLVQAGGSLRLSCAASGTTFRANAMGWYRQAPAKERELVAAITSGGSTNYADSVKGRFTISRDNAKNTVYLQMNSLKPEDTAVYYCAKETYYGTDNFGQVGGEMDYWGQGNQVTVSS | low polyreactivity
QVQLVESGGGLVQAGGSLRLSCAASGTTFRFYAMGLYRQAPGKERELDAAINGSGGSTYYADSVKGRFTISRDNAKNTVYFQMISMKPEDTAVYYCAADGVPDALDRDYWGQGTQVNVSS | low polyreactivity
QVQLVESGGGLVQAGGSLRLSCAASGTTFTAYAMGWYREAPGKERELVAAINWSGGTTYYADSVKGRFTISRDNAKNTVYLQMTSLKPEDTAVYYCAVDGNFFVEVSPYDYWGQGTQVTVSS | low polyreactivity
QVQLVESGGGLVQAGGSLRLSCAASGTTFYGYVMGWYRQAPGKQREWVAAISSSGGRTYYADSVKGRFTISRDNAKNTVYLQMNSLNPEDTAVYYCNTVQRYSTHYDYWGQGTQVTVSS | high polyreactivity
QVQLVESGGGLVQAGGSLRLSCAASGTTIQGYAMGWYRQAPGKERELVAAISGSGGTTYYADSVKGRFTISRDNAKNTVYLQMNSLKPEDTAVYYCAAYVFYNFGVYTRGYYYWGQGTQVTVSS | high polyreactivity
QVQLVESGGGLVQAGGSLRLSCAASGVIFYRNAMGWYRQAPGKERELVATIRYSGGSTYYADSVKGRFTISRDNAKNTVYLEMNSLKPEDSAVYYCNARRWYLPRRSGYGYWGQGTVVTVSS | high polyreactivity
QVQLVESGGGLVQAGGSLRLSCAASGVTFDAYVMGWYRQAPRKERELVAGIYSGGSTYYADSVKGRFTISRDNAKNTVYLQMNSLKPEDTAVYYCARENYRFAHEPPVSRQIPYDYWGQGTQVTVSS | low polyreactivity

Sequence | polyreactivity (PSR sort gate)
QVQLVESGGGLVQAGGSLRLSCAASGVTFESYDMGWYRQAHGKERELVAAITWDGGSTYYADSVKGRFTISRDNAKNTVYLQMNSLKPEDTAVYYCAADFGTISIDVYSWMDYWGQGTQVTVSS | low polyreactivity
QVQLVESGGGLVQAGGSLRLSCAASGVTFQFYARGWYREAPGKERELVAAISRRGGRTDYADSVTGRFTISRDNAKNTAYLQMNSLKPEDTAVYYCARDPGAFEYWGQGTQVTVSS | high polyreactivity
QVQLVESGGGLVQAGGSLRLSCAASGVTFYHNAMGSYRQAPGKERELVAAISSSGDSTYYADSVKGRFTISRDNAKNTVYLHMNSLKPEDTAVYYCNDYFYYLSLYYYYWFNYDYWGQGTQVTVSS | low polyreactivity
QVQLVESGGGLVQAGGSLRLSCAASGYFDLNAMGWYRQAPGKERELVAAITDGGSTNYADSVKGRFTISRDNAKNTVYLQMNSLKPEDTAVYYCAADRGHTILHGGYWGQGTQVTVSS | low polyreactivity
QVQLVESGGGLVQAGGSLRLSCAASGYIFDAYAMGWYRQAPGKERELVAAIDIGGSTYYADSVKGRFTISRDNAKNTVYLQMNSLKPEDTAVYYCAEWFYFDQWDYAREYWGQGTQVTVSS | low polyreactivity
QVQLVESGGGLVQAGGSLRLSCAASGYIFDPNAMGWYRQAPGKERELVAAISGSGTSTYYADSVKGRFTISRDNAKNTVYLQMNSLKPEDTAVYYCAAAHDAGPVRYYYWGQGTQVTVSS | low polyreactivity
QVQLVESGGGLVQAGGSLRLSCAASGYIFDVNAMGWSRPAPGKESELVASISRSGASTYYADSVKGRFTISRDNAKNTVYLQMNSLQPEDTAVYYCNAVSRYCEYDSWGQGTQVTVSS | high polyreactivity
QVQLVESGGGLVQAGGSLRLSCAASGYIFDYYAMGWYRQAPWKERELVAAISSSGGTTYYADSVKGRFTISRDNAKNTVYLQMNSLKPEDTAVYYCAARKSRWQRGYYYWGQGTQVTVSS | high polyreactivity
QVQLVESGGGLVQAGGSLRLSCAASGYIFFGNAMGWYRQAPGKERELVAAIRWRGTSTYYADSVKGRFTISRDNAKNTVYLQMNSLKPEDTAVYYCAADVVRYNFYGTFLYDYDYWGQGTQVTVSS | low polyreactivity
QVQLVESGGGLVQAGGSLRLSCAASGYIFGSYVMGWYRQAPGKERELVAAITRIGASTYYADSVKGRFTISRDNAKNNVYLQMNSLKPEDTAVYYCATDQGGYYENDYWGQGNQVTVSS | low polyreactivity
QVQLVESGGGLVQAGGSLRLSCAASGYIFGVYAMGWYRQAPGKERELVAAISYGVGSTSYADSVKGRFTISRDNAKNTVYLQMNSLKPEDTAVYYCAADVFFYVYEAYLLYYWGQGTQVTVSS | low polyreactivity
QVQLVESGGGLVQAGGSLRLSCAASGYIFGVYVMGSYRQAPGKERELVAAITRGGGNTYYADSVKGRFTISRDNAKNSVYLQMNSLKPEDTAVYYCAARSLKSLSRYYYWGQGTQVTVSS | high polyreactivity
QVQLVESGGGLVQAGGSLRLSCAASGYIFGWNAMGWYRQAPGKERELVASIRWGGGSTYYADSVKGRFTISRDNAKNTVYLQMNSLKPEDTAVYYCAAKRRYYGPWSRIGYDYWGQGTQVTVSS | low polyreactivity
QVQLVESGGGLVQAGGSLRLSCAASGYIFGWYAMGWYRQAPGKERELLATIDWSGDSTYYADSVKGRFTISRDNAKNTVYLQMNSLKPEDTAVYYCAVGYVVDTWDEYDYWGQGTQVTVSS | low polyreactivity
QVQLVESGGGLVQAGGSLRLSCAASGYIFGYYAMGWYRQAPGKERELVAAISTDGSTDYADSVKGRFTISRDNAKKTVYLQMNSLKPEDTAVYYCAKELFIVTNGVYIYDSWGQGTQVTVSS | low polyreactivity
QVQLVESGGGLVQAGGSLRLSCAASGYIFGYYVMGWYRQAPGKERELVAAISDSDITYYADSVKGRFTISRDNAKNTVYLQMNSLKPEDTAVYYCNKDHSLYEHNYWGQGTLVTVSS | low polyreactivity
QVQLVESGGGLVQAGGSLRLSCAASGYIFGYYVMGWYRQAPGKERELVAAITGRGGSTYYADSVKGRFTISRDNAKNTVYLQMNSLKPEDTAVYYCAADATTYPYDPWHLYEIWEYYYWGQGTQVTVSS | low polyreactivity
QVQLVESGGGLVQAGGSLRLSCAASGYIFHYNTMGWYRQAPGKERELVAAITWSGGNTYYADSVKGRFTISRDNAKNTVYLQMNSLKPEDTAVYYFAKLNYSPEATRSNYWGQGTQVTVSS | low polyreactivity
QVQLVESGGGLVQAGGSLRLSCAASGYIFILYAKGWYRQATGKERQLVATISSNAVSTYYADSVKGRFTISRDNAKITVYLQMNSLKPEDTAVYYCNVEYTPNTVSGYDYWGQGTQVTVSS | low polyreactivity
QVQLVESGGGLVQAGGSLRLSCAASGYIFIRNAMGWYRQAPGKERELVAAISWTGGSTYYADSVKGRFTISRDNAKNTVYLQMNSLKPEDTAVYYCNKYYRAWLLWDYGYWGQGTQVTVSS | high polyreactivity
